A word on the Km: it is the concentration of substrate that gives half-maximal velocity. As usually defined, the Vmax is the rate approached at saturating substrate.

The values below come from PMC5794333, “Identification of osmoadaptive strategies in the halophile, heterotrophic ciliate Schmidingerothrix salinarum” (PLoS Biology, 2018).

Substrate in data set [1]: O=C(O)CC(C(=O)O)C(O)C(=O)O
The data set can be described thus: purified protein. It counts as biochemical, Escherichia coli. The conditions noted are these: 0.05 M NaCl, 0.8 mM NADP+, 1 mM MgCl2, 32.5 mM Tris/HCl pH 7.5, concentration as DL-isocitrate.

Substrate in data set [2]: O=C(O)CC(=O)C(=O)O
The experiment in a line: purified protein. The following applies: 0.05 M NaCl, 0.3 mM NADH, 32.5 mM Tris/HCl pH 7.5.

B1: ICDHE.coli (Escherichia coli K-12) (protein)
chain: MESKVVVPAQGKKITLQNGKLNVPENPIIPYIEGDGIGVDVTPAMLKVVDAAVEKAYKGERKISWMEIYTGEKSTQVYGQDVWLPAETLDLIREYRVAIKGPLTTPVGGGIRSLNVALRQELDLYICLRPVRYYQGTPSPVKHPELTDMVIFRENSEDIYAGIEWKADSADAEKVIKFLREEMGVKKIRFPEHCGIGIKPCSEEGTKRLVRAAIEYAIANDRDSVTLVHKGNIMKFTEGAFKDWGYQLAREEFGGELIDGGPWLKVKNPNTGKEIVIKDVIADAFLQQILLRPAEYDVIACMNLNGDYISDALAAQVGGIGIAPGANIGDECALFEATHGTAPKYAGQDKVNPGSIILSAEMMLRHMGWTEAADLIVKGMEGAINAKTVTYDFERLMDGAKLLKCSEFGDAIIENM
notes: N-terminal His-tag, cloned from genomic DNA into pETDuet-1, E. coli BL21; Ni-NTA
Take B1: in “purified protein [1]”, the Km came out at 21 µM and the maximal velocity (Vmax) was 46 µmol/min/mg.

B2: MDHE.coli (Escherichia coli K-12) (protein)
chain: MKVAVLGAAGGIGQALALLLKTQLPSGSELSLYDIAPVTPGVAVDLSHIPTAVKIKGFSGEDATPALEGADVVLISAGVARKPGMDRSDLFNVNAGIVKNLVQQVAKTCPKACIGIITNPVNTTVAIAAEVLKKAGVYDKNKLFGVTTLDIIRSNTFVAELKGKQPGEVEVPVIGGHSGVTILPLLSQVPGVSFTEQEVADLTKRIQNAGTEVVEAKAGGGSATLSMGQAAARFGLSLVRALQGEQGVVECAYVEGDGQYARFFSQPLLLGKNGVEERKSIGTLSAFEQNALEGMLDTLKKDIALGEEFVNK
For B2, in the data set “purified protein [2]”, the Michaelis-Menten constant (Km) came to 22 µM and the Vmax stood at 1490 µmol/min/mg.
